T1: Rat IL2Rγ extracellular domain expressed with a C-terminal myc-myc-hexahistidine tag (rat)
T1 construct: whole entry is the tagged construct; also called rIL-2Rg-MMH; rat IL-2Rg-MMH
T1 chain: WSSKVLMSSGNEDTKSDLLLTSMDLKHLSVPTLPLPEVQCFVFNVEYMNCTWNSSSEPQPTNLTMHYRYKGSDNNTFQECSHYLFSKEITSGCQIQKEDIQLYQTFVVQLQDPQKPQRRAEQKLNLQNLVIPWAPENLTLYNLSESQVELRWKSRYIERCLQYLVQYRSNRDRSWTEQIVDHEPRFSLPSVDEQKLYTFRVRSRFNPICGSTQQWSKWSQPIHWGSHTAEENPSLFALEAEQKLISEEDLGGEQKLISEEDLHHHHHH

T2: Human IL2Rγ extracellular domain expressed with a C-terminal mouse IgG2a Fc tag (human)
T2 construct: whole entry is the Fc-fused construct; also called hIL-2Rg-mFc
T2 chain: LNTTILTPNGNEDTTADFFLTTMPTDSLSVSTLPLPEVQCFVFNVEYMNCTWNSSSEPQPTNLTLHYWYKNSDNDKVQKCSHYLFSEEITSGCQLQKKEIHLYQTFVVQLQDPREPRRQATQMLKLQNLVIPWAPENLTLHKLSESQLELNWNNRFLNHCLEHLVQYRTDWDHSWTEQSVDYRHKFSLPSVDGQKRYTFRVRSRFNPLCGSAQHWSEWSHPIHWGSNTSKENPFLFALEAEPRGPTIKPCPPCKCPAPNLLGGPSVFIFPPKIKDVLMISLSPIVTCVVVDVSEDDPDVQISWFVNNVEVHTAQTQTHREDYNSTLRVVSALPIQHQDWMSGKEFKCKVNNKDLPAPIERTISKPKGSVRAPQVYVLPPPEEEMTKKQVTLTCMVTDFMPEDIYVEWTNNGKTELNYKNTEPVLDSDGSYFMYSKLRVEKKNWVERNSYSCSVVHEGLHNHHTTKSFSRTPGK

T3: Mouse IL2Rγ extracellular domain expressed with a C-terminal myc-myc-hexahistidine tag (mouse)
T3 construct: whole entry is the tagged construct; also called mIL-2Rg-MMH
T3 chain: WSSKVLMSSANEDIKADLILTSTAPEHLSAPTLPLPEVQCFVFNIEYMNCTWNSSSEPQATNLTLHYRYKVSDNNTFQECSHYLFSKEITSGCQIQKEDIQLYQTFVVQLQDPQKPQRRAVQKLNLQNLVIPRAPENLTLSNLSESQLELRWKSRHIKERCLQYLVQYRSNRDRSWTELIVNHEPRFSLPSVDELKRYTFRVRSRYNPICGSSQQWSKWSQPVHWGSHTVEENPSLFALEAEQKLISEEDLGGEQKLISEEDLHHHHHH

T4: Macaca fascicularis IL2Rγ extracellular domain expressed with a C-terminal myc-myc-hexahistidine tag (Macaca fascicularis)
T4 construct: whole entry is the tagged construct; also called mfIL-2Rg-MMH
T4 chain: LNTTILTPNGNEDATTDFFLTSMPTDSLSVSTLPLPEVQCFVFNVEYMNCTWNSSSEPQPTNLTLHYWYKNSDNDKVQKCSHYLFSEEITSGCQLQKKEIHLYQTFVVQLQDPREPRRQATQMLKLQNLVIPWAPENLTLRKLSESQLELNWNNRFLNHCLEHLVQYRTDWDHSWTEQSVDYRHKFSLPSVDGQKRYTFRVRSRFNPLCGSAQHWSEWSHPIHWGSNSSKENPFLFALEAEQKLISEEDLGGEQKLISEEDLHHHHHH

T5: human IL-2Rγ endogenously expressed on NK-92 and Jurkat cells (human, UniProt P31785 23-369)
T5 construct: whole, on cells; on cells it stands with the other receptor subunits of the cell line; also called IL-2Rg; CD132
T5 sequence (looked up): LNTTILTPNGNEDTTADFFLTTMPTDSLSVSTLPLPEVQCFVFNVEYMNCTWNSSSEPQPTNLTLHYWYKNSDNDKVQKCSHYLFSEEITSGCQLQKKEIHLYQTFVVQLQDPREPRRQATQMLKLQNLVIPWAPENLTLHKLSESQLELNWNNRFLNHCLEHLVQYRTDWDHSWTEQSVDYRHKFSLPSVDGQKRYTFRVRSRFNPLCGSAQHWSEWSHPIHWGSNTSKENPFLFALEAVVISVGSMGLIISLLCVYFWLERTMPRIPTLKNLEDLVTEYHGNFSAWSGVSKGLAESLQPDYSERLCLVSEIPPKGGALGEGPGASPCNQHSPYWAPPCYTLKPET

T6: mouse IL-2Rγ endogenously expressed on MC/9 cells (mouse, UniProt P34902 23-369)
T6 construct: whole, on cells
T6 sequence (looked up): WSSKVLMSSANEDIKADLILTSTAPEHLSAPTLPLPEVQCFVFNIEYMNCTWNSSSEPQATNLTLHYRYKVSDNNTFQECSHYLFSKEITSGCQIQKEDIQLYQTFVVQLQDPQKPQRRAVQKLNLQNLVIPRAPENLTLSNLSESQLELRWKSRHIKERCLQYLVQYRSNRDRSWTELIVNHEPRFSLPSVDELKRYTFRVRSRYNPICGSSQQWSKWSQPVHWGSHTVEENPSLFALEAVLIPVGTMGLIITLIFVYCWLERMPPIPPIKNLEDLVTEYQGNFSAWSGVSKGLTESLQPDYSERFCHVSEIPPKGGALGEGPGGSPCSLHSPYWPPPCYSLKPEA

B1: H4H13545P2 (antibody, human IgG4 S228P, kappa, V domains shown)
VH: QVQLQQSGPGLVKPSQTLSLTCDISGDSVSSNIATWNWIRQSPSRGLEWLGRTYYRSKWYKDYAVSVKSRITINPDTSKNQFSLQVNSVTPEDTAVYYCARMTGPRYYFEYWGQGTLVTVSS
VL: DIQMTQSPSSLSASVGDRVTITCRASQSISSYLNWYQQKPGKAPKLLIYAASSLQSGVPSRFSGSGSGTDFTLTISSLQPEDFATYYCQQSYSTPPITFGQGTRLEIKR
notes: fully human anti-IL2Rgamma mAb, human IgG4 Fc
B2: H4H12858P (antibody, human IgG4 S228P, kappa, V domains shown)
VH: EVQLVESGGDLVQPGGSLRLSCTASGFIFRNYAMNWVRQAPGKGLEWLSGILGSNDNTYYVDSVKGRFTISRDNSRNTLYLQMNSLRAEDSAVYYCAKGDAGGFDYWGQGTLVTVSS
VL: DVVMTQSPLSLPVILGQPASISCRSSQSLVSSDGNTYLNWFQQRPGQSPRRLIYKVSNRDSGVPDRFSGSGSGTDFTLKISRVEAEDVGAYYCMQGSYWPPTFGQGTKLEIKR
notes: fully human anti-IL2Rg antibody, human IgG4; also called REGN9433
B3: H4H12863P (antibody, human IgG4 S228P, kappa, V domains shown)
VH: QVQLVESGGGVVQPGRSLRLSCTASGFTFRSYDMYWVRQAPGKGLEWVSVITYDGNNKYYADSVKGRFTISRDNSKNTLFLQMSSLRPEDTAVYYCAKRGLIWVGESFDYWGQGTLVTVSS
VL: DIQMTQSPSTLSASVGDRVTITCRASQSINSWLAWYQQKPGKAPNLLIYKASSLESGVPSRFSGSGSGTEFTLTISSLQPDDFATYYCQQYKSYSWTFGQGTKVEIKR
notes: fully human anti-IL2Rg antibody, human IgG4
B4: H4H13541P (antibody, human IgG4 S228P, kappa, V domains shown)
VH: EVQLVESGGGVVRPGGSLRLSCAASGFIFDDYDMSWVRQPPGRGLEWVSGIDWFGGTRGYADSMKGRFTISRDNAKNSLYLQMNSLRVEDTAFYYCARGGAIVGAVTPFDYWGQGTLVTVSS
VL: DIQMTQSPSSLSASVGNRVTLSCRASQSINTYLSWYQQRPGKAPKLLIYAASSLQSGVPSRFSGSGAGTDFTLTISSLQPEDFATYYCQQSYSAPLTFGGGTKVEIKR
notes: as for B1
B5: H4H13544P2 (antibody, human IgG4 S228P, kappa, V domains shown)
VH: QLQLQESGPGLVKPSETLSLTCTVSGGSISIKNYYWGWIRQPPGKGLEWIGSIYYSGTTYYNPSLKSRVTISVDTSKNQFSLKLSSVTAADTAVYHCARHGYSYGHGWFDPWGQGTLVTVSS
VL: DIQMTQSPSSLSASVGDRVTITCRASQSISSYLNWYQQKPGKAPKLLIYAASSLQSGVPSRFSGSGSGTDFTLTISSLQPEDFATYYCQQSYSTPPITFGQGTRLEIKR
notes: as for B1
B6: H4H12859P (antibody, human IgG4 S228P, kappa, V domains shown)
VH: QVQLVQSGAEVKKPGASVRVSCKASGYTFTDYDIHWVRQAPGHGLEWMGWINPNSGGTNYAQKFQGRVTMTRDTSISTVYMDLSRLRSDDTAVYYCARADYSSSYYYYGMDVWGQGTTVTVSS
VL: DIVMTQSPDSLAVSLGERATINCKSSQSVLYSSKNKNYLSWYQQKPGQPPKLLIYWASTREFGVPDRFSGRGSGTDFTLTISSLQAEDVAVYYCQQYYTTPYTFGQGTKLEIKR
notes: as for B3

Tests used:
[1] = molecular target: T1, Rat IL2Rγ extracellular domain …; test: SPR Biacore 4000, anti-hFc-captured mAb, 25 C
Method: (§1) Equilibrium dissociation constants (KD values) for IL-2Rγ binding to purified anti-IL2Rγ monoclonal antibodies were determined using a Biacore 4000 instrument equipped with a real-time surface plasmon resonance biosensor. All binding studies were performed in 10 mM HEPES, 150 mM NaCl, 3 mM EDTA, and 0.05% v/v Surfactant Tween-20, pH 7.4 (HBS-ET) running buffer at 25° C. and 37° C. The Biacore sensor surface was first derivatized by amine coupling with a monoclonal mouse anti-human Fc antibody (GE, # BR-1008-39) to capture anti-IL2Rγ monoclonal antibodies.
(§2) The dissociation of monoclonal antibody bound IL2Rγ reagents were monitored for 8-10 minutes in HBS-ET running buffer. Kinetic association (kₐ) and dissociation (kd) rate constants were determined by fitting the real-time sensorgrams to a 1:1 binding model using Scrubber 2.0c curve fitting software. Binding dissociation equilibrium constants (KD) and dissociative half-lives (t_{1/2}) were calculated from the kinetic rate constants as: […]

[2] = molecular target: T2, Human IL2Rγ extracellular domain …; test: SPR Biacore 4000, anti-hFc-captured mAb, 25 C
Method: as §1, §2

[3] = molecular target: T3, Mouse IL2Rγ extracellular domain …; test: SPR Biacore 4000, anti-hFc-captured mAb, 25 C
Method: as §1, §2

[4] = molecular target: T4, Macaca fascicularis IL2Rγ extracellular …; test: SPR Biacore 4000, anti-hFc-captured mAb, 37 C
Method: as §1, §2

[5] = molecular target: T1, Rat IL2Rγ extracellular domain …; test: SPR Biacore 4000, anti-hFc-captured mAb, 37 C
Method: as §1, §2

[6] = molecular target: T2, Human IL2Rγ extracellular domain …; test: SPR Biacore 4000, anti-hFc-captured mAb, 37 C
Method: as §1, §2

[7] = molecular target: T3, Mouse IL2Rγ extracellular domain …; test: SPR Biacore 4000, anti-hFc-captured mAb, 37 C
Method: as §1, §2

[8] = molecular target: T5, human IL-2Rγ endogenously expressed on …; test: flow cytometry, 10 ug/ml antibody, Jurkat cells (endogenous human IL-2Rg)
Method: (§3) For flow cytometry analyses, the cells were pre-incubated with mouse IgG at 100 μg/ml for 15 minutes at room temperature (RT) to block the binding of the antibodies to Fc receptors. […] Cells were washed, fixed using BD CytoFix™ (BD biosciences, #554655) and analyzed on an IQue® (Intellicyt®) Flow Cytometer or Accuri Flow cytometer (BD). […] The results were analyzed using ForeCyt® (IntelliCyt®) software to determine the geometric means of fluorescence (MFI) for viable cells. Binding ratios were calculated by normalizing the MFI of the test sample by the MFI of the unstained sample.

[9] = molecular target: T6, mouse IL-2Rγ endogenously expressed on …; test: flow cytometry, 10 ug/ml antibody, MC/9 cells (endogenous mouse IL-2Rg)
Method: as §3

[10] = molecular target: T5, human IL-2Rγ endogenously expressed on …; test: flow cytometry, 10 ug/ml antibody, NK-92 cells (endogenous human IL-2Rg)
Method: as §3

Binder	100 nM Ag Bound [1] [RU]	binding result [1]	50 nM Ag Bound [2] [RU]	Kd [2] [nM]	koff [2] [s⁻¹]	kon [2] [M⁻¹ s⁻¹]	t1/2 [2] [min]	100 nM Ag Bound [3] [RU]	binding result [3]	100 nM Ag Bound [4] [RU]	Kd [4] [nM]	koff [4] [s⁻¹]	kon [4] [M⁻¹ s⁻¹]	t1/2 [4] [min]	100 nM Ag Bound [5] [RU]	50 nM Ag Bound [6] [RU]	Kd [6] [nM]	koff [6] [s⁻¹]	kon [6] [M⁻¹ s⁻¹]	t1/2 [6] [min]	also measured
B1	4	no binding (tested: 100 nM)	64	12	0.00211	175000	5	4	no binding (tested: 100 nM)	21	88.6	0.0129	146000	0.9	3	59	30	0.00737	246000	1.6	100 nM Ag Bound [7]: 2 RU
B2																					Binding Ratio (Sample over unstained MFIs) [8]: 1; Raw MFI [8]: 99 MFI; Binding Ratio (Sample over unstained MFIs) [9]: 1; Raw MFI [9]: 199 MFI; Binding Ratio (Sample over unstained MFIs) [10]: 2; Raw MFI [10]: 228 MFI
B3																					Binding Ratio (Sample over unstained MFIs) [8]: 13; Raw MFI [8]: 1170 MFI; Binding Ratio (Sample over unstained MFIs) [9]: 1; Raw MFI [9]: 185 MFI; Binding Ratio (Sample over unstained MFIs) [10]: 87; Raw MFI [10]: 13000 MFI
B4	4	no binding (tested: 100 nM)	24	1.8	8.84e-05	49200	131	5	no binding (tested: 100 nM)	111	7.1	0.000755	106000	15	5	42	2.18	0.000122	56000	94	100 nM Ag Bound [7]: 4 RU
B5	3	no binding (tested: 100 nM)	63	2.21	0.000246	111000	47	3	no binding (tested: 100 nM)	60	52.1	0.00612	118000	1.9	4	88	6.33	0.000801	126000	14	100 nM Ag Bound [7]: 4 RU
B6																					Binding Ratio (Sample over unstained MFIs) [8]: 1; Raw MFI [8]: 89 MFI; Binding Ratio (Sample over unstained MFIs) [9]: 1; Raw MFI [9]: 201 MFI; Binding Ratio (Sample over unstained MFIs) [10]: 1; Raw MFI [10]: 176 MFI
